Results as given in article PMC11948038, “Evolutionary Pro‐To‐Thr Mutation in the Intrinsically Disordered Domain of ANP32 Family Members Modulates Their Target Binding Modes” (Advanced Science, 2025).

B3: cytochrome c (natural protein)
chain: not shown
notes: cytochrome c (Cc), a hemeprotein; Carries a heme group; the reduced form was used in ITC and NMR relaxation; 15N-labelled for the NMR titrations; Expression and purification are in the Supporting Information Appendix; also called Cc; hemeprotein Cc; source: details in the Supporting Information

How the values were obtained:
Conditions in all cases: both partners purified
HuR_(106-326) [1] = molecular target: T1, HuR_(106-326) (UniProt Q15717 106-326); test: ITC; 1 mM peptide titrated onto 100 µM HuR106-326 in the cell; 17 injections of 2.91 µL; 10 mM sodium phosphate buffer pH 6.3 (low ionic strength); stirring 200 rpm; Nano ITC Low Volume
T1 construct: amplified from a pGEX-4T-2 plasmid carrying full-length HuR; No cleavage of the tags is told; also called human antigen R construct with RRM2, hinge region and RRM3; source: E. coli BL21 (DE3), purified (Ni-NTA, dialysis)
T1 sequence (Q15717 106-326): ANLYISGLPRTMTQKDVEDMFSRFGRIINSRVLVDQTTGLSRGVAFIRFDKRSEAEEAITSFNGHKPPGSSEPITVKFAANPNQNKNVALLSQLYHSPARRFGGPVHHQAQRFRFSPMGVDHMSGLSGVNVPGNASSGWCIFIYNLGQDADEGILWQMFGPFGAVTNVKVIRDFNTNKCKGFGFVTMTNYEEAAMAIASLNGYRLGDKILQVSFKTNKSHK

full-length ANP32A [2] = molecular target: T2, full-length ANP32A (human, UniProt P39687 1-249); test: ITC; low ionic strength (25 mM): 10 mM sodium phosphate pH 7.4; 400 µM reduced Cc injected into 50 µM ANP32A construct; two-ligand binding sites model, no cooperativity
T2 construct: Used in ITC and NMR titrations; construct details are in the Supporting Information Appendix; also called acidic leucine-rich nuclear phosphoprotein 32 A; source: details in the Supporting Information

biotinylated ANP32A = molecular target: T3, biotinylated ANP32A (human, UniProt P39687 1-249, biotin (site not stated)); test: BLI; biotinylated ANP32 proteins on a streptavidin-coated sensor, increasing concentrations of Cc; wavelength shifts at equilibrium plotted against Cc concentration
T3 construct: ANP32A, human, biotinylated and attached to a streptavidin-coated sensor

biotinylated ANP32B = molecular target: T4, biotinylated ANP32B (human, UniProt Q92688 1-251, biotin (site not stated)); test: as above
T4 construct: ANP32B, human, biotinylated and attached to a streptavidin-coated sensor

full-length ANP32A [3] = molecular target: T2, full-length ANP32A; test: ITC; moderate ionic strength (100 mM): 20 mM sodium phosphate pH 7.4 with 50 mM NaCl; 400 µM reduced Cc injected into 50 µM ANP32A; single site
full-length ANP32A [4] = molecular target: T2, full-length ANP32A; test: ITC; low ionic strength (25 mM): 10 mM sodium phosphate pH 7.4; 400 µM reduced Cc injected into 50 µM ANP32A construct; two-ligand binding sites model, no cooperativity; remark: listed apart in the source
cytochrome c = molecular target: B3; test: ITC; 1 mM peptide titrated onto 110 or 150 µM reduced Cc; 10 mM sodium phosphate pH 6.3; single binding-site model
HuR_(106-326) [5] = molecular target: T5, HuR_(106-326) (UniProt Q15717 106-326); test: ITC; 1 mM peptide titrated onto 100 µM HuR_(106-326); 10 mM sodium phosphate pH 6.3, low ionic strength
T5 construct: also called HuR construct containing the RRM domains 2 and 3, separated by the hinge region; source: details in the Supporting Information
T5 sequence (Q15717 106-326): as above

Sequence of cytochrome c (P99999 2-105): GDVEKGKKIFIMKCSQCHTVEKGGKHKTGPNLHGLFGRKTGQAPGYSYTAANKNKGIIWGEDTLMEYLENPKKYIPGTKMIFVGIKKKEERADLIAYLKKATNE

B1: ANP32A_(230-249) peptide (peptide)
peptide: EEERGQKRKREPEDEGEDDD
notes: also called ANP32A peptide; source: synthetic peptide (Genecust, France)
- Kd (HuR_(106-326) [1]): 120 µM
- stoichiometry N (HuR_(106-326) [1]): 1.8 ± 0.03

B2: ANP32B_(232-251) peptide (peptide)
peptide: EEGGKGEKRKRETDDEGEDD
notes: also called ANP32B peptide; source: synthetic peptide (Genecust, France)
- Kd (HuR_(106-326) [1]): 550 µM
- stoichiometry N (HuR_(106-326) [1]): 1.9 ± 0.03

Binder: B3
- stoichiometry N (full-length ANP32A [2]): 2
- Kd (biotinylated ANP32A): ~2.3 µM
- Kd (biotinylated ANP32B): ~4.2 µM
- Kd (full-length ANP32A [3]): 32 µM
- dH (full-length ANP32A [3]): 1.5 kcal/mol
- stoichiometry N (full-length ANP32A [3]): 0.6 ± 0.03
- KD of site 1 (full-length ANP32A [4]): 3.6 µM
- KD of site 2 (full-length ANP32A [4]): 34 µM
- dH of site 1 (full-length ANP32A [4]): 0.4 kcal/mol
- dH of site 2 (full-length ANP32A [4]): 8.6 kcal/mol

B4: ANP32B_(232-251) peptide (peptide)
peptide: EEGGKGEKRKRETDDEGEDD
notes: as for B2
- Kd (cytochrome c): 710 µM
- dH (cytochrome c): -8 kcal/mol
- stoichiometry N (cytochrome c): 1.2 ± 0.03
- stoichiometry N (HuR_(106-326) [5]): 2

B5: ANP32A_(230-249) P241T peptide (peptide)
peptide: EEERGQKRKRETEDEGEDDD
notes: also called single mutant; source: synthetic peptide (Genecust, France)
- Kd (cytochrome c): 190 µM
- dH (cytochrome c): -6.9 kcal/mol
- stoichiometry N (cytochrome c): 0.77 ± 0.03

B6: ANP32A_(230-249) peptide (peptide)
peptide: EEERGQKRKREPEDEGEDDD
notes: also called ANP32A peptide; NLS-containing peptide; source: synthetic peptide (Genecust, France)
- Kd (cytochrome c): 69 µM
- dH (cytochrome c): -2.6 kcal/mol
- stoichiometry N (cytochrome c): 0.76 ± 0.03
- fold affinity against ANP32B_(232-251) (HuR_(106-326) [5]): ~5 fold
- stoichiometry N (HuR_(106-326) [5]): 2

B7: ANP32A_(230-249) Q235E/P241T peptide (peptide)
peptide: EEERGEKRKRETEDEGEDDD
notes: also called double mutant; source: synthetic peptide (Genecust, France)
- Kd (cytochrome c): 190 µM
- dH (cytochrome c): -8.2 kcal/mol
- stoichiometry N (cytochrome c): 0.77 ± 0.03
